{
  "source": "paper PMC2213684",
  "about": "“Altering coenzyme specificity of Pichia stipitis xylose reductase by the semi-rational approach CASTing” (Microbial Cell Factories, 2007)",
  "key": {"purified protein [1]": {"substrate": "NC(=O)C1=CN([C@@H]2O[C@H](COP(=O)(O)OP(=O)(O)OC[C@H]3O[C@@H](n4cnc5c(N)ncnc54)[C@H](OP(=O)(O)O)[C@@H]3O)[C@@H](O)[C@H]2O)C=CC1", "assay": "purified protein", "assay_type": "biochemical, Scheffersomyces stipitis", "conditions": "50 mM potassium phosphate pH 6.0"}, "purified protein [2]": {"substrate": "NC(=O)C1=CN([C@@H]2O[C@H](COP(=O)(O)OP(=O)(O)OC[C@H]3O[C@@H](n4cnc5c(N)ncnc54)[C@H](O)[C@@H]3O)[C@@H](O)[C@H]2O)C=CC1", "assay": "purified protein", "assay_type": "biochemical, Scheffersomyces stipitis", "conditions": "50 mM potassium phosphate pH 6.0"}, "[3]": {"conditions": "mutant NT-K270R/N272D, 0.5 M xylose"}},
  "data": [
    {"protein": "PsXR (wild-type NT-XR), Pichia stipitis xylose reductase (Scheffersomyces stipitis CBS 6054) (protein) MPSIKLNSGYDMPAVGFGCWKVDVDTCSEQIYRAIKTGYRLFDGAEDYANEKLVGAGVKKAIDEGIVKREDLFLTSKLWNNYHHPDNVEKALNRTLSDLQVDYVDLFLIHFPVTFKFVPLEEKYPPGFYCGKGDNFDYEDVPILETWKALEKLVKAGKIRSIGVSNFPGALLLDLLRGATIKPSVLQVEHHPYLQQPRLIEFAQSRGIAVTAYSSFGPQSFVELNQGRALNTSPLFENETIKAIAAKHGKSPAQVLLRWSSQRGIAIIPKSNTVPRLLENKDVNSFDLDEQDFADIAKLDINLRFNDPWDWDKIPIFV", "values": [
      {"measurement": "Km", "setting": "purified protein [1]; 0.5 M xylose", "result": "6.2 ± 1.4", "unit": "µM"},
      {"measurement": "kcat", "setting": "purified protein [1]; 0.5 M xylose", "result": "27.5 ± 3.28", "unit": "s⁻¹"},
      {"measurement": "kcat/Km", "setting": "purified protein [1]; 0.5 M xylose", "result": "4.65e+06 ± 938000", "unit": "M⁻¹ s⁻¹"},
      {"measurement": "Km", "setting": "purified protein [2]; 0.5 M xylose", "result": "10.6 ± 0.6", "unit": "µM"},
      {"measurement": "kcat", "setting": "purified protein [2]; 0.5 M xylose", "result": "15.4 ± 0.583", "unit": "s⁻¹"},
      {"measurement": "kcat/Km", "setting": "purified protein [2]; 0.5 M xylose", "result": "1.46e+06 ± 112000", "unit": "M⁻¹ s⁻¹"}
    ]},
    {"protein": "PsXR (wild-type NT-XR), Pichia stipitis xylose reductase (Scheffersomyces stipitis CBS 6054; K270S/N272P) (protein) MPSIKLNSGYDMPAVGFGCWKVDVDTCSEQIYRAIKTGYRLFDGAEDYANEKLVGAGVKKAIDEGIVKREDLFLTSKLWNNYHHPDNVEKALNRTLSDLQVDYVDLFLIHFPVTFKFVPLEEKYPPGFYCGKGDNFDYEDVPILETWKALEKLVKAGKIRSIGVSNFPGALLLDLLRGATIKPSVLQVEHHPYLQQPRLIEFAQSRGIAVTAYSSFGPQSFVELNQGRALNTSPLFENETIKAIAAKHGKSPAQVLLRWSSQRGIAIIPSSPTVPRLLENKDVNSFDLDEQDFADIAKLDINLRFNDPWDWDKIPIFV", "values": [
      {"measurement": "Km", "setting": "purified protein [1]; mutant 1-2F7, 0.5 M xylose", "result": "849 ± 45", "unit": "µM"},
      {"measurement": "kcat", "setting": "purified protein [1]; mutant 1-2F7, 0.5 M xylose", "result": "35.2 ± 3.93", "unit": "s⁻¹"},
      {"measurement": "kcat/Km", "setting": "purified protein [1]; mutant 1-2F7, 0.5 M xylose", "result": "41700 ± 5000", "unit": "M⁻¹ s⁻¹"},
      {"measurement": "Km", "setting": "purified protein [2]; mutant 1-2F7, 0.5 M xylose", "result": "512 ± 22", "unit": "µM"},
      {"measurement": "kcat", "setting": "purified protein [2]; mutant 1-2F7, 0.5 M xylose", "result": "18.5 ± 1.3", "unit": "s⁻¹"},
      {"measurement": "kcat/Km", "setting": "purified protein [2]; mutant 1-2F7, 0.5 M xylose", "result": "36300 ± 2520", "unit": "M⁻¹ s⁻¹"}
    ]},
    {"protein": "PsXR (wild-type NT-XR), Pichia stipitis xylose reductase (Scheffersomyces stipitis CBS 6054; K270S/N272P/R276F/S271G) (protein) MPSIKLNSGYDMPAVGFGCWKVDVDTCSEQIYRAIKTGYRLFDGAEDYANEKLVGAGVKKAIDEGIVKREDLFLTSKLWNNYHHPDNVEKALNRTLSDLQVDYVDLFLIHFPVTFKFVPLEEKYPPGFYCGKGDNFDYEDVPILETWKALEKLVKAGKIRSIGVSNFPGALLLDLLRGATIKPSVLQVEHHPYLQQPRLIEFAQSRGIAVTAYSSFGPQSFVELNQGRALNTSPLFENETIKAIAAKHGKSPAQVLLRWSSQRGIAIIPSGPTVPFLLENKDVNSFDLDEQDFADIAKLDINLRFNDPWDWDKIPIFV", "values": [
      {"measurement": "Km", "setting": "purified protein [1]; mutant 2-2C12, 0.5 M xylose", "result": "427 ± 17", "unit": "µM"},
      {"measurement": "kcat", "setting": "purified protein [1]; mutant 2-2C12, 0.5 M xylose", "result": "2.63 ± 0.15", "unit": "s⁻¹"},
      {"measurement": "kcat/Km", "setting": "purified protein [1]; mutant 2-2C12, 0.5 M xylose", "result": "6170 ± 317", "unit": "M⁻¹ s⁻¹"},
      {"measurement": "Km", "setting": "purified protein [2]; mutant 2-2C12, 0.5 M xylose", "result": "147 ± 12", "unit": "µM"},
      {"measurement": "kcat", "setting": "purified protein [2]; mutant 2-2C12, 0.5 M xylose", "result": "12 ± 0.95", "unit": "s⁻¹"},
      {"measurement": "kcat/Km", "setting": "purified protein [2]; mutant 2-2C12, 0.5 M xylose", "result": "81700 ± 5250", "unit": "M⁻¹ s⁻¹"}
    ]},
    {"protein": "PsXR (wild-type NT-XR), Pichia stipitis xylose reductase (Scheffersomyces stipitis CBS 6054; K270R/N272D) (protein) MPSIKLNSGYDMPAVGFGCWKVDVDTCSEQIYRAIKTGYRLFDGAEDYANEKLVGAGVKKAIDEGIVKREDLFLTSKLWNNYHHPDNVEKALNRTLSDLQVDYVDLFLIHFPVTFKFVPLEEKYPPGFYCGKGDNFDYEDVPILETWKALEKLVKAGKIRSIGVSNFPGALLLDLLRGATIKPSVLQVEHHPYLQQPRLIEFAQSRGIAVTAYSSFGPQSFVELNQGRALNTSPLFENETIKAIAAKHGKSPAQVLLRWSSQRGIAIIPRSDTVPRLLENKDVNSFDLDEQDFADIAKLDINLRFNDPWDWDKIPIFV", "values": [
      {"measurement": "Km", "setting": "purified protein [1]; [3]", "result": "142 ± 31", "unit": "µM"},
      {"measurement": "kcat", "setting": "purified protein [1]; [3]", "result": "15.9 ± 3.38", "unit": "s⁻¹"},
      {"measurement": "kcat/Km", "setting": "purified protein [1]; [3]", "result": "107000 ± 24800", "unit": "M⁻¹ s⁻¹"},
      {"measurement": "Km", "setting": "purified protein [2]; [3]", "result": "58 ± 9", "unit": "µM"},
      {"measurement": "kcat", "setting": "purified protein [2]; [3]", "result": "17.9 ± 2.07", "unit": "s⁻¹"},
      {"measurement": "kcat/Km", "setting": "purified protein [2]; [3]", "result": "313000 ± 40000", "unit": "M⁻¹ s⁻¹"}
    ]}
  ]
}
